Experimental data as given in US20250295587A1, “COMPLEX LIPID NANOPARTICLES ENCAPSULATING POLYPEPTIDES AND USES THEREOF” (SAIL BIOMEDICINES, INC., priority 2022, published 2025).

Tests used:
[1] = Particle loading / insulin encapsulation efficiency by bicinchoninic acid assay (BCA); format: physicochemical; settings: insulin concentration of the dosed preparation
Description: Next, the mixture of re-hydrated particles containing the active biomolecule was purified and separated from the free active biomolecule not loaded in the particles by a dialysis step overnight. The dialysis was performed in a 100 kD dialysis membrane in the buffer used for the formulation process as discussed above, at a buffer volume at least 2000× the volume of the solution to be purified (e.g., 0.1M sodium bicarbonate, pH 8.2, buffer). The dialysate was concentrated in centrifugal unit to the preferred concentration. Alternatively, the purification and separation step could be performed with tangential flow filtration (TFF). The described purification steps are optional and were not performed for all formulations. Particle morphological characteristics were analyzed with dynamic light scattering methods. Particle loading efficiency was quantified with a bicinchoninic acid assay (BCA).
The insulin encapsulation efficiency of the complex lipid formulations (the amount of insulin that was trapped to the vesicles) was also characterized, and the results ranged consistently from 25-35%. Similar characterizations were measured for other formulations of complex lipid particles.

[2] = design: species or system mice; settings: mouse, in vivo
Description: The animals used were C57BL6 female 8-week-old mice (Jax #0664). […] Mice were weighed, and a pre-bleed sample was taken (through tail vein, retro-orbital or submandibular means). The mice were fasted overnight before being dosed via intracolonic administration with 50 uL of a given insulin-loaded complex lipid formulation (Table 8). Non-terminal bleeds at 30 minutes and 60 minutes post-dose were taken, alternating routes of collection. A terminal bleed at 120 minutes post-dose via cardiac puncture was also taken. Whole blood samples from the pre-bleed, 30 minute, 60 minute, and 120 minute bleeds were processed for plasma then stored at −80° C. Insulin levels were quantified by MSD assay. Exposure to the active biomolecule (e.g. insulin) was measured as area under the curve (AUC) of the four measured timepoints, and dose was measured as BCA*dose volume (0.05 mL). Therefore, the data in Table 9 for each mouse is shown as systemic levels of insulin (or exposure normalized by dose). […] Unexpectedly, 20 of 22 (>90%) different complex lipid formulations out-performed free IC insulin.

## Control: free insulin given by intracolonic (IC) administration, not encapsulated
[1]
  BCA (Insulin mg/mL): Avg = 1.16 mg/mL
[2]
  Systemic levels of insulin (exposure AUC normalized by dose), Avg: Avg = 290.1
